# Experimental data: the supplement of paper PMC9112550, “Optimization of the antimicrobial peptide Bac7 by deep mutational scanning” (BMC Biology, 2022)
# System: Escherichia coli TOP10
# Assay: shrunken log2 fold change of peptide-encoding DNA abundance (4.5 h post-induction vs induction); higher = less antimicrobial activity (less host growth inhibition)
# Conditions: time post-induction: 4.5 h; library: site-saturation at positions 5, 18, 19, 20
# 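Note: peptides expressed intracellularly from a pBAD plasmid library in pooled LB shake-flask culture, induced with 0.3% L-arabinose, DNA abundance read by NGS, three biological replicates, DESeq2 with apeglm shrinkage.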
row,Sequence,shrunken log2 fold change
1,RRIRRRPPRLPRPRPRPAPFPRP,0.863
2,RRIRRRPPRLPRPRPRPAPWPRP,0.626
3,RRIRRRPPRLPRPRPRPAQDPRP,0.349
4,RRIRRRPPRLPRPRPRPARRPRP,0.546
5,RRIRRRPPRLPRPRPRPASDPRP,-0.0475
6,RRIRRRPPRLPRPRPRPASRPRP,0.202
7,RRIRRRPPRLPRPRPRPATAPRP,0.479
8,RRIRRRPPRLPRPRPRPATKPRP,0.0529
9,RRIRRRPPRLPRPRPRPAVIPRP,0.00992
10,RRIRRRPPRLPRPRPRPAVTPRP,-0.111
11,RRIRRRPPRLPRPRPRPAWQPRP,0.561
12,RRIRRRPPRLPRPRPRPAWTPRP,1.74
13,RRIRRRPPRLPRPRPRPAWYPRP,0.176
14,RRIRRRPPRLPRPRPRPCCDPRP,0.583
15,RRIRRRPPRLPRPRPRPCCFPRP,0.151
16,RRIRRRPPRLPRPRPRPCCIPRP,-0.179
17,RRIRRRPPRLPRPRPRPCCTPRP,-0.0151
18,RRIRRRPPRLPRPRPRPCDGPRP,0.0965
19,RRIRRRPPRLPRPRPRPCESPRP,0.0471
20,RRIRRRPPRLPRPRPRPCEWPRP,-0.0585

row,Sequence,shrunken log2 fold change
1,RRIRRRPPRLPRPRPRPCFIPRP,-0.127
2,RRIRRRPPRLPRPRPRPCFPPRP,0.592
3,RRIRRRPPRLPRPRPRPCHKPRP,0.153
4,RRIRRRPPRLPRPRPRPCHNPRP,-0.278
5,RRIRRRPPRLPRPRPRPCHPPRP,-0.0611
6,RRIRRRPPRLPRPRPRPCIWPRP,0.0382
7,RRIRRRPPRLPRPRPRPCLFPRP,-0.0047
8,RRIRRRPPRLPRPRPRPCLKPRP,-0.184
9,RRIRRRPPRLPRPRPRPCMDPRP,-0.229
10,RRIRRRPPRLPRPRPRPCMKPRP,-0.0288
11,RRIRRRPPRLPRPRPRPCMYPRP,-0.0801
12,RRIRRRPPRLPRPRPRPCNEPRP,-0.0323
13,RRIRRRPPRLPRPRPRPCPIPRP,0.0892
14,RRIRRRPPRLPRPRPRPCQIPRP,-0.211
15,RRIRRRPPRLPRPRPRPCQKPRP,0.0185
16,RRIRRRPPRLPRPRPRPCQLPRP,-0.231
17,RRIRRRPPRLPRPRPRPCQPPRP,-0.0346
18,RRIRRRPPRLPRPRPRPCRPPRP,0.0965
19,RRIRRRPPRLPRPRPRPCSRPRP,0.00396
20,RRIRRRPPRLPRPRPRPCSWPRP,-0.124

row,Sequence,shrunken log2 fold change
1,RRIRRRPPRLPRPRPRPCWTPRP,-0.13
2,RRIRRRPPRLPRPRPRPCYEPRP,0.107
3,RRIRRRPPRLPRPRPRPDAPPRP,0.888
4,RRIRRRPPRLPRPRPRPDDKPRP,0.0703
5,RRIRRRPPRLPRPRPRPDDNPRP,0.18
6,RRIRRRPPRLPRPRPRPDEAPRP,0.376
7,RRIRRRPPRLPRPRPRPDFVPRP,-0.0983
8,RRIRRRPPRLPRPRPRPDGGPRP,0.149
9,RRIRRRPPRLPRPRPRPDGQPRP,0.298
10,RRIRRRPPRLPRPRPRPDGRPRP,0.0193
11,RRIRRRPPRLPRPRPRPDHHPRP,-0.254
12,RRIRRRPPRLPRPRPRPDHNPRP,0.121
13,RRIRRRPPRLPRPRPRPDIRPRP,-0.294
14,RRIRRRPPRLPRPRPRPDIVPRP,0.17
15,RRIRRRPPRLPRPRPRPDKDPRP,0.00839
16,RRIRRRPPRLPRPRPRPDKNPRP,0.0344
17,RRIRRRPPRLPRPRPRPDKQPRP,0.0803
18,RRIRRRPPRLPRPRPRPDKSPRP,0.00757
19,RRIRRRPPRLPRPRPRPDMGPRP,0.00408
20,RRIRRRPPRLPRPRPRPDMIPRP,-0.0332
